From article PMC3117669 (The Biochemical journal, 2010) come the findings set out here.

Values joined by “and” are separate entries in the source; they are usually repeats but may differ in a detail not shown here. Equal entries are not always repeated.

One series deals with T1, GST-lipin 1b (1-641) (mouse, UniProt Q91ZP3 1-641).
T1 sequence (looked up): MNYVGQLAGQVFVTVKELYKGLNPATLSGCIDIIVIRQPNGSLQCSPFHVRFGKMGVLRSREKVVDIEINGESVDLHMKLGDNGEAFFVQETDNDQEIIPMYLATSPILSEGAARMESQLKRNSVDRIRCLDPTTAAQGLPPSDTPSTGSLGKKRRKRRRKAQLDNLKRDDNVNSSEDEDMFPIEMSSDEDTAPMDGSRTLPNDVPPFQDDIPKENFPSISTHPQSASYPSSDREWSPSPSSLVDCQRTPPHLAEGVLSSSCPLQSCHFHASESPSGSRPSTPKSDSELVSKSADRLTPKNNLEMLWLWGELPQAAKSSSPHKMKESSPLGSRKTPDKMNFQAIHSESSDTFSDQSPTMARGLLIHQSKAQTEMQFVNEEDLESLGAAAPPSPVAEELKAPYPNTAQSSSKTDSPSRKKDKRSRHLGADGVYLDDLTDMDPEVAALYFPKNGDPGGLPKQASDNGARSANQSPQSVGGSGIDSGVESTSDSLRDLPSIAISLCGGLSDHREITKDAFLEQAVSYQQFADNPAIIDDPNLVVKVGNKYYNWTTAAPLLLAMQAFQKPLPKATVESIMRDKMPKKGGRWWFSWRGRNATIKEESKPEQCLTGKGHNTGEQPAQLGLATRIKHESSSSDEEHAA
In words: pull-down.

Series [1] concerns the target T2, V5-lipin 1b (469-924), immunopurified (mouse, UniProt Q91ZP3 469-924).
T2 sequence (looked up): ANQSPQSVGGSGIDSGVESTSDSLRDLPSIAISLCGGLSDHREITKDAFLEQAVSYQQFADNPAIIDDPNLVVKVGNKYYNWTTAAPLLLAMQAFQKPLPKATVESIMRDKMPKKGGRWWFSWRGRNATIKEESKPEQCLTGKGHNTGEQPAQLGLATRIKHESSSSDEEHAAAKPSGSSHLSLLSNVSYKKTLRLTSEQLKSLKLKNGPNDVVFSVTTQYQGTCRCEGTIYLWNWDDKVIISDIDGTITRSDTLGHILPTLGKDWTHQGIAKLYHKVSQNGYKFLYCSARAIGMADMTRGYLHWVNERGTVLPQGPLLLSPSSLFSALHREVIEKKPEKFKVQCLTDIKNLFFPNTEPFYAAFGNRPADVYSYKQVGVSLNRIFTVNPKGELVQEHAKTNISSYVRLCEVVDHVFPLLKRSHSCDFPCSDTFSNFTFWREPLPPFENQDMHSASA
In words: pull-down.

The series “native gel or EMSA” concerns the molecule itself. Put plainly: native gel or EMSA.

B1: V5-lipin 1b (1-171), immunopurified (domain or fragment, mouse, UniProt Q91ZP3 1-171, looked up)
chain: MNYVGQLAGQVFVTVKELYKGLNPATLSGCIDIIVIRQPNGSLQCSPFHVRFGKMGVLRSREKVVDIEINGESVDLHMKLGDNGEAFFVQETDNDQEIIPMYLATSPILSEGAARMESQLKRNSVDRIRCLDPTTAAQGLPPSDTPSTGSLGKKRRKRRRKAQLDNLKRDD
On to B1, for which the binding result in the series with GST-lipin 1b (1-641) is “binds”.

B2: GST-lipin 1b (642-924) (domain or fragment, mouse, UniProt Q91ZP3 642-924, looked up)
chain: AKPSGSSHLSLLSNVSYKKTLRLTSEQLKSLKLKNGPNDVVFSVTTQYQGTCRCEGTIYLWNWDDKVIISDIDGTITRSDTLGHILPTLGKDWTHQGIAKLYHKVSQNGYKFLYCSARAIGMADMTRGYLHWVNERGTVLPQGPLLLSPSSLFSALHREVIEKKPEKFKVQCLTDIKNLFFPNTEPFYAAFGNRPADVYSYKQVGVSLNRIFTVNPKGELVQEHAKTNISSYVRLCEVVDHVFPLLKRSHSCDFPCSDTFSNFTFWREPLPPFENQDMHSASA
Take B2: in series [1], the binding result is listed as “binds”.

B3: lipin 1b-V5 (HEK293A) (natural protein, mouse, UniProt Q91ZP3 1-924, looked up)
chain: MNYVGQLAGQVFVTVKELYKGLNPATLSGCIDIIVIRQPNGSLQCSPFHVRFGKMGVLRSREKVVDIEINGESVDLHMKLGDNGEAFFVQETDNDQEIIPMYLATSPILSEGAARMESQLKRNSVDRIRCLDPTTAAQGLPPSDTPSTGSLGKKRRKRRRKAQLDNLKRDDNVNSSEDEDMFPIEMSSDEDTAPMDGSRTLPNDVPPFQDDIPKENFPSISTHPQSASYPSSDREWSPSPSSLVDCQRTPPHLAEGVLSSSCPLQSCHFHASESPSGSRPSTPKSDSELVSKSADRLTPKNNLEMLWLWGELPQAAKSSSPHKMKESSPLGSRKTPDKMNFQAIHSESSDTFSDQSPTMARGLLIHQSKAQTEMQFVNEEDLESLGAAAPPSPVAEELKAPYPNTAQSSSKTDSPSRKKDKRSRHLGADGVYLDDLTDMDPEVAALYFPKNGDPGGLPKQASDNGARSANQSPQSVGGSGIDSGVESTSDSLRDLPSIAISLCGGLSDHREITKDAFLEQAVSYQQFADNPAIIDDPNLVVKVGNKYYNWTTAAPLLLAMQAFQKPLPKATVESIMRDKMPKKGGRWWFSWRGRNATIKEESKPEQCLTGKGHNTGEQPAQLGLATRIKHESSSSDEEHAAAKPSGSSHLSLLSNVSYKKTLRLTSEQLKSLKLKNGPNDVVFSVTTQYQGTCRCEGTIYLWNWDDKVIISDIDGTITRSDTLGHILPTLGKDWTHQGIAKLYHKVSQNGYKFLYCSARAIGMADMTRGYLHWVNERGTVLPQGPLLLSPSSLFSALHREVIEKKPEKFKVQCLTDIKNLFFPNTEPFYAAFGNRPADVYSYKQVGVSLNRIFTVNPKGELVQEHAKTNISSYVRLCEVVDHVFPLLKRSHSCDFPCSDTFSNFTFWREPLPPFENQDMHSASA
For B3, the “stoichiometry N” value in “native gel or EMSA” is 2 and 4.
